In paper PMC7367873, “Dissecting the sequence determinants for dephosphorylation by the catalytic subunits of phosphatases PP1 and PP2A” (Nature Communications, 2020):

Molecular target: T1, PP2Ac (Homo sapiens, UniProt P67775)
T1 construct: purchased Cayman Chemical 10011237
Assay: Phosphopeptide library dephosphorylation followed by mass spectrometry (PLDMS), PP2Ac
Type: biochemical
Settings: all libraries, 25 nM PP2Ac, 100 µM library, 4 min, 25 °C, pH 7.5; library distribution 60% Ser to 40% Thr
Source text: In order to determine phosphatase specificity on the phosphopeptide level, we developed an in vitro phosphopeptide library dephosphorylation followed by mass spectrometry approach (PLDMS, Fig. 1a; see the methods for details). In this approach, phosphopeptide libraries would be treated with PP1, PP2A, or left untreated, purified, and analyzed by LC-MS/MS measurements. In the first step, design, synthesis, and validation of phosphopeptide libraries were required. The phosphopeptide libraries were designed to yield an even distribution of amino acids in the different randomized positions and to give high coupling efficiency during synthesis, thus reducing the number of by-products. […]
The individual libraries were incubated with recombinant PP1c or PP2Ac (Supplementary Fig. 1a) and the reaction was stopped by shifting the pH from 7.5 to 3 when 30–50% of the library was dephosphorylated, depending on phosphatase activity (see the methods for details, Supplementary Fig. 1b). Peptides were then separated from the recombinant protein by size-exclusion chromatography (SEC) (Supplementary Fig. 1c) and analyzed by LC-MS/MS (Fig. 1a). […]
For LC-MS analysis, the treated/ctrl peptide libraries were purified by SEC. […] A 0.1 M ammonium acetate buffer (pH 5) was used throughout the column equilibration and purification and the elution profile was recorded at 280 nm. […]

T1 sequence (P67775 1-308 limits assumed): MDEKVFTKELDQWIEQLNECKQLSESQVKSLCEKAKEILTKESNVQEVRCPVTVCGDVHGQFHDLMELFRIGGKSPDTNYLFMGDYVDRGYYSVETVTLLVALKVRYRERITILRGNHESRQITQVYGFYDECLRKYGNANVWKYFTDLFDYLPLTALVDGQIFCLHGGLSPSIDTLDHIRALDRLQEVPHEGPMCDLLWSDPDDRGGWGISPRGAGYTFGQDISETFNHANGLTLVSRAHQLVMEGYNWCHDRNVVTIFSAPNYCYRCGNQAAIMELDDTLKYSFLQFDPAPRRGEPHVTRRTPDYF

pThr share of all sites dephosphorylated by PP2Ac: 83%
Substance: PP2Ac: His-tagged recombinant PPP2CA ΔL309, purchased from Cayman Chemical
